Laboratory results taken from US20130336885A1 (Genentech, published 2013).

What was measured:
[1] = target: T1, gD epitope-tagged rat LgR5 expressed on stably transfected 293 cells (rat, UniProt D4AC13 22-907); assay: FACS on 293 cells stably transfected with gD epitope-tagged LgR5, 10 ug/ml antibody, R-Phycoerythrin goat anti-human detection
T1 construct: also called gD-tagged rat LgR5
T1 sequence: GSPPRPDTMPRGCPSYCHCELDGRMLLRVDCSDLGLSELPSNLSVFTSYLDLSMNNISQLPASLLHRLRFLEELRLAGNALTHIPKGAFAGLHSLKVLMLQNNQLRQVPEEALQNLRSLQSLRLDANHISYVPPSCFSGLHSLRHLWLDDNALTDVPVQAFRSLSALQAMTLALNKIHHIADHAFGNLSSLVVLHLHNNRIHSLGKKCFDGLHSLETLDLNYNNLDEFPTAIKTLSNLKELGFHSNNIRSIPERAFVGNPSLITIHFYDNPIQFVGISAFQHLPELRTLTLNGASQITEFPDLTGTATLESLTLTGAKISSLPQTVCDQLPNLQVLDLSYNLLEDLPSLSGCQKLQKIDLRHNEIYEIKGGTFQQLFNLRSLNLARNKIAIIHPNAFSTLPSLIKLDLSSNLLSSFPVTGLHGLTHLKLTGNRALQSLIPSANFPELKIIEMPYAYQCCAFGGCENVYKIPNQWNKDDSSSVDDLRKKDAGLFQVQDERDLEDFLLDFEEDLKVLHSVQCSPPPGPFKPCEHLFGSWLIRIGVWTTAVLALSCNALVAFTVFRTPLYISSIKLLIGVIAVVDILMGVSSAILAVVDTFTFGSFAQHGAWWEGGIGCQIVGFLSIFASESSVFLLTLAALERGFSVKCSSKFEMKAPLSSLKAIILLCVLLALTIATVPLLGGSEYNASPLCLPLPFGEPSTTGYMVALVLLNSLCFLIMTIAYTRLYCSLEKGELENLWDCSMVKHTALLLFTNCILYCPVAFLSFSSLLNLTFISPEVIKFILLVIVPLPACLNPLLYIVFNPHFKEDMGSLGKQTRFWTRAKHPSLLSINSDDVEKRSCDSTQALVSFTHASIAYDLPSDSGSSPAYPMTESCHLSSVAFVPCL
Experimental: (§1) Monoclonal antibodies were tested to determine if they cross-react with LgR5 from species other than human. […] Residues that are identical among all four species are indicated by asterisks (*). […] YW353 antibody binds human and cynomolgus monkey LgR5, but not rat or mouse LgR5. Ch8E11 and hu8E11.v2 antibodies bind all four species of LgR5, although binding to rat LgR5 is not as strong as binding to human, cynomolgus monkey, or mouse LgR5. 2H6 antibody binds to human and mouse LgR5, and was not tested for binding to cynomolgus monkey or rat LgR5.

[2] = target: T2, gD epitope-tagged mouse LgR5 expressed on stably transfected 293 cells (mouse, UniProt Q9Z1P4 22-907); assay: FACS on stably transfected 293 cells, detected with R-Phycoerythrin goat anti-human antibody
T2 construct: also called gD-tagged mouse LgR5
T2 sequence: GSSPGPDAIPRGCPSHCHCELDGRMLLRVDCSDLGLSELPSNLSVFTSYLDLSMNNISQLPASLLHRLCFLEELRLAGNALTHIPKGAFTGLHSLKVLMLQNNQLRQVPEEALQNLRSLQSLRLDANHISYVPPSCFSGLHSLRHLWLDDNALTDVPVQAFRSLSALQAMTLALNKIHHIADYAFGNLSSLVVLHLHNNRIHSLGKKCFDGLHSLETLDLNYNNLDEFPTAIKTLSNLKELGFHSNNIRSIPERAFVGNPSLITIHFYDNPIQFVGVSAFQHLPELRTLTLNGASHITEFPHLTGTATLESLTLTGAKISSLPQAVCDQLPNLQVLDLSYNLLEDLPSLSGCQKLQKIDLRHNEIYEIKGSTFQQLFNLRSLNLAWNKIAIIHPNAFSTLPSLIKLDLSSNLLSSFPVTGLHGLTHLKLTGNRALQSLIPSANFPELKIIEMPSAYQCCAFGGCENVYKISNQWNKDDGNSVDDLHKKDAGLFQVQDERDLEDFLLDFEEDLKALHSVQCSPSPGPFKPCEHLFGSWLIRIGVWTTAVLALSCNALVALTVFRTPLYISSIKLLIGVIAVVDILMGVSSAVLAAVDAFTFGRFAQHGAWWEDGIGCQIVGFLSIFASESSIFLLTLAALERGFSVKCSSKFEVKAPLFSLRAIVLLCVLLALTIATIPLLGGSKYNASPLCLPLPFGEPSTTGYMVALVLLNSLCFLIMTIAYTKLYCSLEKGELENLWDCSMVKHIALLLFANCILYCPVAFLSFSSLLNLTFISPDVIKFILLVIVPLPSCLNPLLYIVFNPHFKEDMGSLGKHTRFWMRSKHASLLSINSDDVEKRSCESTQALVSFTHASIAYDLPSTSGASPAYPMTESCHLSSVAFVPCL
Experimental: as §1

[3] = target: T1, gD epitope-tagged rat LgR5 expressed on …; assay: as above
Experimental: as §1

B1: chimeric monoclonal antibody 8E11 (antibody, human IgG1, V domains shown)
VH: QVQLQQSGTELMKPGASVKISCKATGYTFSAYWIEWIKQRPGHGLEWIGEILPGSDSTDYNEKFKVKATFSSDTSSNTVYIQLNSLTYEDSAVYYCARGGHYGSLDYWGQGTTLKVSS
VL: NIVLTQSPASLAVSLGQRATISCRASESVDNYGNSFMHWYQQKPGQPPKLLIYLASNLESGVPARFSGSGSRTDFTLTIDPVEADDAATYYCQQNYEDPFTFGSGTKVEIKR
notes: also called ch8E11; chimeric 8E11
binding result [1]: binds

B2: human antibody YW353 (antibody, human IgG1, kappa, V domains shown)
VH: EVQLVESGGGLVQPGGSLRLSCAASGFTFTSYSISWVRQAPGKGLEWVAEIYPPGGYTDYADSVKGRFTISADTSKNTAYLQMNSLRAEDTAVYYCAKARLFFDYWGQGTLVTVSS
VL: DIQMTQSPSSLSASVGDRVTITCRASQDVSTAVAWYQQKPGKAPKLLIYSASFLYSGVPSRFSGSGSGTDFTLTISSLQPEDFATYYCQQSYTTPPTFGQGTKVEIKR
notes: also called huYW353
binding result [2]: no binding (tested: 10 µg/ml) | binding result [3]: no binding (tested: 10 µg/ml)
